Reference: PMC8067865 (Molecules, 2021)

Columns and labels:
Assay in all cases: native MS; 3 to 4.5 uM purified P dimers, buffer exchanged to ammonium acetate (GII.10 Vietnam 125 mM; GII.17 Kawasaki and GII.4 Saga 300 mM; GII.4 MI001 250 mM) pH 7.5; nano-ESI, positive ion mode, 25 °C; monomer-dimer
[1] = biological target: GII.17 Kawasaki 308 P domain (VP1 residues 225-530) (human norovirus GII.17 Kawasaki 308)
[2] = biological target: GII.4 MI001 P domain (VP1 residues 225-530), wildtype N373 (human norovirus GII.4 MI001)
[3] = biological target: partially deamidated GII.4 MI001 P domain (VP1 residues 225-530), approximately 64% deamidated at N373 (human norovirus GII.4 MI001)
[4] = biological target: GII.10 Vietnam 026 P domain (VP1 residues 224-538) (human norovirus GII.10 Vietnam 026)
[5] = biological target: fully deamidated (iDiD) GII.4 Saga P domain (VP1 residues 225-530), N373 converted to iso-aspartate (human norovirus GII.4 Saga 2006) (UniProt B5BTR7)
[6] = biological target: the molecule itself

## GII.17 Kawasaki 308 P domain (VP1 residues 225-530) (domain or fragment)
[1]
  stoichiometry N: 2

## GII.4 MI001 P domain (VP1 residues 225-530), wildtype N373 (domain or fragment)
[2]
  stoichiometry N: 2

## partially deamidated GII.4 MI001 P domain (VP1 residues 225-530), approximately 64% deamidated at N373 (domain or fragment)
[3]
  percent monomers: 16%

## GII.10 Vietnam 026 P domain (VP1 residues 224-538) (domain or fragment)
[4]
  stoichiometry N: 2

## fully deamidated (iDiD) GII.4 Saga P domain (VP1 residues 225-530), N373 converted to iso-aspartate (from UniProt B5BTR7 225-530) (domain or fragment)
[5]
  percent monomers: 32%

B1: GII.4 Saga 2006 P domain (VP1 residues 225-530), wildtype N373 (NN) (domain or fragment)
chain: GPGSKPFTVPILTVEEMTNSRFPIPLEKLFTGPSGAFVVQPQNGRCTTDGVLLGTTQLSPVNICTFRGDVTHIAGSRNYTMNLASLNWNNYDPTEEIPAPLGTPDFVGKIQGLLTQTTKGDGSTRGHKATVYTGSAPFTPKLGSVQFSTDTENDFETHQNTKFTPVGVIQDGSTTHRNEPQQWVLPSYSGRNVHNVHLAPAVAPTFPGEQLLFFRSTMPGCSGYPNMDLDCLLPQEWVQHFYQEAAPAQSDVALLRFVNPDTGRVLFECKLHKSGYVTVAHTGQHDLVIPPNGYFRFDSWVNQFYTLAPM
notes: major capsid protein VP1 of human norovirus GII.4 Saga 2006, protruding (P) domain, VP1 residues 225-530; also called GII.4 Saga P dimer; wildtype GII.4 Saga P domains; source: E. coli BL21(DE3), purified (Ni-NTA, HRV 3C cleavage, SEC; cation exchange to separate pure N373 wildtype); not shown: two His-tags, N-terminal, cleaved
[6]
  stoichiometry N: 2
